This note sets out measurements from patent publication US20260275319A1, “ARCHAEAL PEPTIDE RECOMBINASE – A NOVEL PEPTIDE LIGATING ENZYME” (MAX-PLANCK-GESELLSCHAFT ZUR FÖRDERUNG DER WISSENSCHAFTEN …, priority 2019, published 2026).

In one experiment the target is (15)KDPGA(0). The experiment is described as follows: microscale thermophoresis (MST); table row (15)KDPGA(0).
Another experiment deals with (15)KDPGA(5). Nature of the experiment: microscale thermophoresis (MST); table row (15)KDPGA(5). Background: MST reads how a fluorescent partner responds to local heating, with and without ligand.

Bounds are passed on as bounds.

B1: M. jannaschii Adriase S1A mutant with C-terminal His-tag, Q57968 3-293 (enzyme)
chain: ALIICYYGKNGAVIGGDRRQIFFRGSEENRKILEEKLYSGEIKSEEELYKLAEKLNIKIIIEDDREKVRKISDSVVCGEVRSLGIDAKRRRVYATKGKCAIVDILNDTVTNQTIKEGFGIVVLGNRFLKKKAEEELKRTAKLFPMMPIQQIEDAIKEIFEKLKWHPTVSKEYDIYSVNKYEKNFEEVIKKDIESLFKYREQLRKQLIDFGKVMSIVNKIVKNGEIGVIKDGKLHLYDDYIAIDKIDPNPKVFKVVDVEGNFKDGDIVVIENGDMKIKGTNEKVTTKYIIIHKGSHHHHHH
Regarding B1, the Kd in the experiment with (15)KDPGA(0) and with (15)KDPGA(5) was more than 20 µM in each case.

The term Kd denotes the free concentration of one partner at which half of the binding sites on the other are occupied at equilibrium, for simple one-to-one binding. Low values mean higher affinity, high ones lower affinity.
